Results as given in patent US7067117 (CAMBRIDGE UNIVERSITY TECHNICAL SERVICES, dated 2006).
Read-outs that look alike come from different tables or passages of the source. Bridge positions count the residues as written; N and C are the ends. Square brackets hold non-standard residues; d marks the D form. Ends that are not written are not given here. * marks the point of attachment. Biotin = O=C1N[C@H]2[C@H](CS[C@H]2CCCCC(=O)*)N1

Legend:
[1] = molecular target: T1, Duffy Antigen Receptor for Chemokines (DARC) (human, UniProt Q16570 1-336); test: DARC binding
T1 chain: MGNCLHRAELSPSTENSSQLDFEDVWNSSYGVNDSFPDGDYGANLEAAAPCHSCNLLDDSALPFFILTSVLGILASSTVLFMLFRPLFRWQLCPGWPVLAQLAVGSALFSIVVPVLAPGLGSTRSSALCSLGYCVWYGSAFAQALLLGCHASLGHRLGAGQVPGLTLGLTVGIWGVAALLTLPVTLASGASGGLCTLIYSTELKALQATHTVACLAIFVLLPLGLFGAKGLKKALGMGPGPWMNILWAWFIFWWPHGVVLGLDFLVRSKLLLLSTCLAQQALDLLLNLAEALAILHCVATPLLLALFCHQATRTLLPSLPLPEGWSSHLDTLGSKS

[2] = molecular target: chemokine receptors on THP-1 cells; test: cell-based or functional assay
[3] = molecular target: T2, Duffy Antigen Receptor for Chemokines (DARC) (human, UniProt Q16570 1-336); test: estimated ka for binding to red blood cells divided by average inhibitory ED50 (THP-1 migration)
T2 construct: whole, on cells
T2 sequence (looked up): T1 chain
Experimental: Counts associated with the cells are then determined by gamma-counting scintigraphy. […] Furthermore, Scatchard analysis confirms the presence of a single high affinity binding site with 500–1000 copies per cell, consistent with the known properties of DARC.
The DARC specificity ratio is also determined. The DARC specificity ratio is defined as the estimated ka for association with DARC divided by the $ED50$ for biological activity. […] Thus, it may be difficult to achieve biologically active (as a chemokine inhibitor) concentrations of these peptides in vivo without further modifications of the peptide.
Footnotes [a]'CC-specificity' is the average inhibitory ED$50$ versus SDF1 and IL8 divided by average inhibitory ED$50$ versus MCP-1 and MIP1α. [b]'Duffy selectivity' is the estimated ka for binding to red blood cells divided by average inhibitory ED$50$ versus each of the chemokines (except for peptide 2; see footnote d below). [c]'Average ED$50$' is the average inhibitory ED$50$ for inhibition of THP-1 migration induced by each of the chemokines (except for peptide 2; see footnote e below). [d]For the peptide 2 family, the 'average ED$50$' is the estimated ka for binding to THP-1 cells. [e]For the peptide 2 family, the 'Duffy selectivity' is calculated as the ka for binding to red blood cells divided by the ka for binding THP1-1 cells. [f]For tripeptide derivatives so marked, the peptide is highly specific for one of the four exemplary chemokines.

[4] = molecular target: T3, Duffy Antigen Receptor for Chemokines (DARC) (human), Q16570; test: Duffy binding
T3 chain: T1 chain

CCR5, P51681 = test: method not described; given as 'affinity constant'
Chain of CCR5, P51681 (P51681 whole entry): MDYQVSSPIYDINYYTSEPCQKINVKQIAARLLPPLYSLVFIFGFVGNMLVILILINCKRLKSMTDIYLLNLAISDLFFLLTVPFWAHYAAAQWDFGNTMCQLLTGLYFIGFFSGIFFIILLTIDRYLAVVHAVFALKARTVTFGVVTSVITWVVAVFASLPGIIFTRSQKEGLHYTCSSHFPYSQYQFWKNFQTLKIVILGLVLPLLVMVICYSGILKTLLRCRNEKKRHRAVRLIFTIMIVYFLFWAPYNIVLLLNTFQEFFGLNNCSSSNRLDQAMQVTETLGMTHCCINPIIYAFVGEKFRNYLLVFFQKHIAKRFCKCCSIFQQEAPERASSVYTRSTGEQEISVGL

CXCR4, P61073 = molecular target: T4, CXCR4, P61073; test: method not described; given as 'affinity constant'
T4 chain: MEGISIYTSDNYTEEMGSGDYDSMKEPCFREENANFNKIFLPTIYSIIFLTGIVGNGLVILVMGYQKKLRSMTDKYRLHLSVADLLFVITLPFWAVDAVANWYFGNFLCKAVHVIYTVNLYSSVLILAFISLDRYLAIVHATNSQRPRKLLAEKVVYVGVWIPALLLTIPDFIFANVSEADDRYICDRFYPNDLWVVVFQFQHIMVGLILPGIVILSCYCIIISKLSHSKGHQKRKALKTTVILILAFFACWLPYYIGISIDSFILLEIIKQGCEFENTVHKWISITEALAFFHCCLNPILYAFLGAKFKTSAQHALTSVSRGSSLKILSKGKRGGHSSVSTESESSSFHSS

[5] = molecular target: T3, Duffy Antigen Receptor for Chemokines …; test: Duffy binding, LRD against LFL peptide 2(1-15)[MCP-1]
[6] = molecular target: T3, Duffy Antigen Receptor for Chemokines …; test: DARC binding; conditions: modification not given
[7] = molecular target: T5, Duffy Antigen Receptor for Chemokines (DARC) (human) (UniProt Q16570); test: estimated ka for binding to red blood cells divided by average inhibitory ED50 (THP-1 migration)
T5 sequence (looked up): T1 chain

[8] = molecular target: TGF-beta receptor of THP-1 cells; test: biotinylated peptide binding to THP-1 cells
[9] = molecular target: chemokine receptors on THP-1 cells; test: biotinylated peptide binding to the surface of THP-1 cells; printed as 'ka' in µM
[10] = molecular target: chemokine receptors on THP-1 cells; test: estimated ka for binding to THP-1 cells, printed under 'AVERAGE ED50 (µM)'
[11] = molecular target: chemokine receptors on THP-1 cells; test: binding to chemokine receptors on THP-1 cells; given as 'association constant'
[12] = molecular target: T2, Duffy Antigen Receptor for Chemokines …; test: ka for binding to red blood cells divided by ka for binding to THP-1 cells
[13] = molecular target: chemokine receptors on THP-1 cells; test: cell-based or functional assay; remark: listed apart in the source
[14] = molecular target: T5, Duffy Antigen Receptor for Chemokines (DARC) (human); test: DARC binding on red blood cells; given as 'association constant'

VGPKSCQSSTEFYD gave a Kd [1] of over 100 µM.

B1: Leu4Ile11peptide 3(1-12)[MCP-1] (peptide)
peptide: EICLDPKQKWIQ
notes: also called Leu4Ile11pep3; Leu4Ile11peptide 3[MCP-1]
B1 gave an ED50 for inhibition of THP-1 migration versus IL8 [2] of 3 µM, an ED50 for inhibition of THP-1 migration versus MCP1 [2] of 2 µM and an ED50 for inhibition of THP-1 migration versus MIP1α [2] of 1 µM. It also gave an ED50 for inhibition of THP-1 migration versus SDF1α [2] of 3 µM, an average ED50 for inhibition of THP-1 migration induced by each of the chemokines [2] of 2 µM and an inhibition of MCP-1 induced migration [2] of 1 µM. For the same binder, the Duffy selectivity [3] was 37.8 ratio.

EICADPSEEWVQ (not fully specified, also called Ser7Glu8Glu9pep3) [Ser7Glu8Glu9peptide 3(1-12)[MCP-1]] was tested, and the ED50 for inhibition of THP-1 migration versus IL8 [2] was 9 µM, the ED50 for inhibition of THP-1 migration versus MCP1 [2] was 7 µM and the ED50 for inhibition of THP-1 migration versus MIP1α [2] was 2 µM. The ED50 for inhibition of THP-1 migration versus SDF1α [2] was 5 µM, the average ED50 for inhibition of THP-1 migration induced by each of the chemokines [2] was 6 µM and the Duffy selectivity [3] was 0.59 ratio.

Binder VAEKPCKSSTIRRYS (not fully specified) [LRD peptide 2(1-15)[MCP-1]] has a Kd [4] of 25 µM, a Kd (CCR5, P51681) of under 0.1 µM and a Kd (CXCR4, P61073) of under 0.1 µM. It also gave a fold decrease in Duffy binding against the LFL peptide [5] of 100 fold and a Kd [6] of 18 µM.

In the case of SES, the % inhibition of migration induced by RANTES at 100 µM tripeptide [2] is reported as 87%.

KQKWVQ (also called Pep3[7-12]; KQKWVQ) [peptide 3(7-12)[MCP-1]] gave an ED50 for inhibition of THP-1 migration versus IL8 [2] of 6 µM, an ED50 for inhibition of THP-1 migration versus MCP1 [2] of 7 µM and an ED50 for inhibition of THP-1 migration versus MIP1α [2] of 5 µM. For the same binder, the ED50 for inhibition of THP-1 migration versus SDF1α [2] was 6 µM, the average ED50 for inhibition of THP-1 migration induced by each of the chemokines [2] was 6 µM and the Duffy selectivity [3] was 2.94 ratio.

Binder SYRRITSK has a Kd [1] of 22 µM.

In the case of [dC][dQ][dV][dW][dK][dQ][dK][dP][dD][dA][dC] (disulfide 1-11 (inferred); not fully specified; printed as -CQVWKQKPDAC--) [CRD-Cys13pep3[3-12]], the average ED50 for inhibition of THP-1 migration induced by each of the chemokines [2] is reported as 0.8 µM and the Duffy selectivity [7] is reported as 8.82.

SYRRI showed a Kd [1] of over 100 µM.

HEPKGYHANFC (also: biotinylated (position not given here)) [Biotinylated T2] showed an EC50 [8] of 30 µM.

In the case of KEN, the % inhibition of migration induced by IL-8 at 100 µM tripeptide [2] is reported as 70% and the % inhibition of migration induced by MCP-1 at 100 µM tripeptide [2] is reported as 21%.

EICADP [peptide 3(1-6)[MCP-1]] showed an ED50 for inhibition of THP-1 migration versus IL8 [2] of 17 µM, an ED50 for inhibition of THP-1 migration versus MCP1 [2] of 33 µM and an ED50 for inhibition of THP-1 migration versus MIP1α [2] of 25 µM. It also gave an ED50 for inhibition of THP-1 migration versus SDF1α [2] of 19 µM, an average ED50 for inhibition of THP-1 migration induced by each of the chemokines [2] of 24 µM and a Duffy selectivity [7] of 5.32.

TSSKC was tested, and the Kd [1] was over 100 µM.

Biotin-EICADPKQKWVQ [N-terminally biotinylated derivative of peptide 3(1-12)[MCP-1]] gave a Kd [9] of 10 µM.

In the case of WIQ, the average ED50 for inhibition of THP-1 migration induced by each of the chemokines [2] is reported as 2 µM.

B2: peptide 2(1-14)[MIP1α] (peptide)
peptide: DYFETSSQCSKPGV
notes: also called Pep2[MIP1α]; Pep2(1-14)[MIP1α]
B2 gave a Kd [1] of over 100 µM, a Kd [10] of 1 to 10 µM and a Kd [11] of 0.1 to 0.9 µM. For the same binder, the Duffy selectivity [12] was over 100 ratio.

In the case of EICLDPKQKWVQ [Leu4peptide 3(1-12)[MCP-1]], the ED50 for inhibition of THP-1 migration versus IL8 [2] is reported as 3 µM, the ED50 for inhibition of THP-1 migration versus MCP1 [2] is reported as 8 µM and the ED50 for inhibition of THP-1 migration versus MIP1α [2] is reported as 7 µM. It also gave an ED50 for inhibition of THP-1 migration versus SDF1α [2] of 3 µM and an average ED50 for inhibition of THP-1 migration induced by each of the chemokines [2] of 5 µM.

CPKEAV showed a Kd [1] of over 100 µM.

Work on ELRVIESGPHCANTEI (also called Pep2[IL8]) [Pep2(1-16)[IL8]] yielded a Kd [10] of 1 to 10 µM and a Duffy selectivity [12] of under 1 ratio.

Binder [dC][dQ][dI][dW][dK][dQ][dK][dP][dD][dL][dC] (disulfide 1-11) [CRD-Cys13Leu4Ile11peptide 3(3-12)[MCP-1]] has an ED50 for inhibition of MCP-1 induced THP-1 migration [13] of 0.001 µM, an average ED50 for inhibition of THP-1 migration induced by each of the chemokines [13] of 0.1 µM and a Kd [14] of 90 µM. The Kd [11] was 0.1 to 0.5 µM and the Duffy selectivity [7] was over 100.

B3: Ser7peptide 3(1-12)[MCP-1] (peptide)
peptide: EICADPSQKWVQ
notes: Mutant of peptide 3; also called Ser7pep3
Work on B3 yielded an ED50 for inhibition of THP-1 migration versus IL8 [2] of 3 µM, an ED50 for inhibition of THP-1 migration versus MCP1 [2] of 7 µM and an ED50 for inhibition of THP-1 migration versus MIP1α [2] of 6 µM. The ED50 for inhibition of THP-1 migration versus SDF1α [2] was 4 µM, the average ED50 for inhibition of THP-1 migration induced by each of the chemokines [2] was 5 µM and the Duffy selectivity [3] was 2 ratio.

SEE showed a % inhibition of migration induced by MIP1α at 100 µM tripeptide [2] of 65%, an ED50 for inhibition of THP-1 migration induced by the one chemokine it is specific for (MIP1α) [2] of 0.8 µM and an ED50 for inhibition of THP-1 migration versus MIP1α [2] of 6 µM.

EICADPKQKWIQ [Ile11peptide 3(1-12)[MCP-1]] gave an ED50 for inhibition of THP-1 migration versus IL8 [2] of 2 µM, an ED50 for inhibition of THP-1 migration versus MCP1 [2] of 6 µM and an ED50 for inhibition of THP-1 migration versus MIP1α [2] of 4 µM. It also gave an ED50 for inhibition of THP-1 migration versus SDF1α [2] of 7 µM and an average ED50 for inhibition of THP-1 migration induced by each of the chemokines [2] of 5 µM.

Work on CSKPGV yielded a Kd [1] of over 100 µM.

DYFETSSQC showed a Kd [1] of over 100 µM.

B4: peptide 2(1-15)[SDF1] (peptide)
peptide: HLKILNTPNCALQIV
notes: also called Pep2[SDF1]; Pep2(1-15)[SDF1]
With B4 the Kd [1] was 19 µM, the Kd [10] was 1 to 10 µM and the Duffy selectivity [12] was under 1 ratio.

B5: peptide 3(3-12)[MCP-1] (peptide)
peptide: CADPKQKWVQ
notes: also called Pep3[3-12]; Pep3(3-12)[MCP-1]
With B5 the ED50 for inhibition of THP-1 migration versus IL8 [2] was 9 µM, the ED50 for inhibition of THP-1 migration versus MCP1 [2] was 8 µM and the ED50 for inhibition of THP-1 migration versus MIP1α [2] was 7 µM. It also gave an ED50 for inhibition of THP-1 migration versus SDF1α [2] of 9 µM, an average ED50 for inhibition of THP-1 migration induced by each of the chemokines [2] of 8 µM and a Duffy selectivity [3] of 1.21 ratio.
